The text below walks through data of patent publication EP1506972A1 (Genentech Inc., dated 2005).

The target of assay [1] is IGF-I Q40A (G1S-A70V background) displayed on phage (human; bacteriophage M13). Description: competitive phage ELISA, soluble IGFBP-3 vs coated IGFBP-3.
The target of assay [2] is IGF-I I43A (G1S-A70V background) displayed on phage (human; bacteriophage M13). The assay is described as above.
Assay [3] addresses IGF-I S34A (G1S-A70V background) displayed on phage (human; bacteriophage M13). Described as above.
For assay [4], the target named is IGF-I G19A (G1S-A70V background) displayed on phage (human; bacteriophage M13). The description is as above.
Assay [5] concerns the target IGF-I N26A (G1S-A70V background) displayed on phage (human; bacteriophage M13). The description is as above.
Assay [6] addresses IGF-I F23A (G1S-A70V background) displayed on phage (human; bacteriophage M13). The assay is described as above.
Assay [7] has as its target Ala(1-3)-IGF-I, triple alanine mutant of the first three N-terminal amino acids, displayed on phage (human; bacteriophage M13). The assay is described as above.
Assay [8] deals with IGF-I F25A (G1S-A70V background) displayed on phage (human; bacteriophage M13). The description is as above.
Assay [9] deals with IGF-I S35A (G1S-A70V background) displayed on phage (human; bacteriophage M13). The assay is described as above.
Assay [10] concerns the target IGF-I V44A (G1S-A70V background) displayed on phage (human; bacteriophage M13). The description is as above.
The target in assay [11] is IGF-I R37A (G1S-A70V background) displayed on phage (human; bacteriophage M13). The description is as above.
The target of assay [12] is IGF-I T41A (G1S-A70V background) displayed on phage (human; bacteriophage M13). Described as above.
Assay [13] deals with IGF-I R21A (G1S-A70V background) displayed on phage (human; bacteriophage M13). The assay is described as above.
For assay [14], the target named is IGF-I D20A (G1S-A70V background) displayed on phage (human; bacteriophage M13). The description is as above.
For assay [15], the target named is IGF-I G22A (G1S-A70V background) displayed on phage (human; bacteriophage M13). Described as above.
The target of assay [16] is IGF-I G42A (G1S-A70V background) displayed on phage (human; bacteriophage M13). The description is as above.
The target of assay [17] is IGF-I Y24A (G1S-A70V background) displayed on phage (human; bacteriophage M13). Described as above.
Another assay addresses T1, human IGFBP-1 (human) (UniProt P08833).
T1 sequence (looked up): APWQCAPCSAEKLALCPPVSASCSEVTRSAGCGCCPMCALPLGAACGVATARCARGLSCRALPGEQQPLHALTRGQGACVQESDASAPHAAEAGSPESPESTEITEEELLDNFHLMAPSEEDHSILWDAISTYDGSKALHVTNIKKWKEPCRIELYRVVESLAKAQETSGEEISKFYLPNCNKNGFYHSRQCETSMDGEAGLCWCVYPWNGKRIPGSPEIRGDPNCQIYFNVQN
Briefly: BIAcore.

The target in assay [18] is recombinant human IGFBP-3 (human) (UniProt P17936). Briefly: BIAcore.
Chain of recombinant human IGFBP-3 (human) (P17936 28-291 limits assumed): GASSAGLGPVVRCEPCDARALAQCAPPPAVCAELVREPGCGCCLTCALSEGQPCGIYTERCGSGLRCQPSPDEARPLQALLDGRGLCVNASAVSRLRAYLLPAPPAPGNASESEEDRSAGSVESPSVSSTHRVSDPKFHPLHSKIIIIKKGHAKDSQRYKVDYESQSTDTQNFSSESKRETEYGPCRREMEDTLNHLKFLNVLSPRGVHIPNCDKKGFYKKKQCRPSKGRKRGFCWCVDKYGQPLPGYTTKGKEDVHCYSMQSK
For assay [19], the target named is T2, IGF-I F49A (G1S-A70V background) displayed on phage (human; bacteriophage M13).
T2 chain: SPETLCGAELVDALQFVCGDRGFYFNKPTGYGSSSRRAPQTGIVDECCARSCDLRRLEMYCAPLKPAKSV
Briefly: competitive phage ELISA, soluble IGFBP-1 vs coated IGFBP-1. Particulars: remark: other sources report otherwise.

A value given as a limit tells only on which side of the number the result lay.

For the molecule “recombinant human IGFBP-3 (from UniProt P17936 28-291)”, the IC50 in [1] stood at 0.56 nM; in assay [2] it was 1.17 nM; in assay [3] it was 1.65 nM; in assay [4], 0.9 nM; in [5], 0.9 nM; in [6], 2.18 nM. The IC50 came out at 1.12 nM in assay [7]; 3.69 nM in [8]; 0.47 nM in [9]; 1.03 nM in [10]; 0.75 nM in assay [11]; 0.43 nM in assay [12]. For the same molecule, the IC50 in assay [13] worked out at 0.58 nM; in [14], 1.11 nM; in [15], 2.07 nM; in assay [16], 0.53 nM; in assay [17] it was 2.53 nM. Also, the relative IC50 (IC50mut/IC50 G1S-A70V) was 0.7 fold in assay [1]; 1.6 fold in assay [2]; 2.2 fold in [3]; 1.2 fold in [4]; 1.2 fold in [5]; 2.9 fold in assay [6]. The relative IC50 (IC50mut/IC50 G1S-A70V) was 1.5 fold in assay [7]; 4.9 fold in assay [8]; 0.6 fold in [9]; 1.4 fold in assay [10]; 1 fold in assay [11]; 0.6 fold in assay [12]. For the same molecule, the relative IC50 (IC50mut/IC50 G1S-A70V) in assay [13] worked out at 0.8 fold; in assay [14], 1.5 fold; in assay [15], 2.8 fold; in [16], 0.7 fold; in [17], 3.4 fold.

Consider “V11A IGF-I (soluble, purified) (from UniProt P05019 49-118) (ligand)”, for which the KD(mutant)/KD(IGF-I) in the assay with human IGFBP-1 (human) came to 5.1 fold; in assay [18] it was 4.5 fold.

On to “F16A IGF-I (soluble, purified) (from UniProt P05019 49-118) (ligand)”, for which the KD(mutant)/KD(IGF-I) with human IGFBP-1 (human) turned out to be 25 fold; in [18], 6.9 fold.

On to “P39A IGF-I (soluble, purified) (from UniProt P05019 49-118) (ligand)”, for which the KD(mutant)/KD(IGF-I) with human IGFBP-1 (human) worked out at 1 fold; in assay [18] it was 1.5 fold.

In the case of “F25A IGF-I (soluble, purified) (from UniProt P05019 49-118) (ligand)”, the KD(mutant)/KD(IGF-I) with human IGFBP-1 (human) worked out at 25 fold; in assay [18], 5.1 fold.

Take “R36A IGF-I (soluble, purified) (from UniProt P05019 49-118) (ligand)”: the KD(mutant)/KD(IGF-I) was 1.1 fold with human IGFBP-1 (human) and 0.8 fold in [18].

“T4A IGF-I (soluble, purified) (from UniProt P05019 49-118) (ligand)”: the KD(mutant)/KD(IGF-I) with human IGFBP-1 (human) came out at 6.9 fold; in assay [18], 2.1 fold.

For “G1S/A70V IGF-I (soluble, purified) (from UniProt P05019 50-117) (ligand)”, the KD(mutant)/KD(IGF-I) is 1.1 fold with human IGFBP-1 (human) and 1.5 fold in assay [18].

B1: human IGFBP-1, P08833 26-259 (protein, UniProt P08833 26-259, looked up)
chain: T1 sequence (looked up)
B1 registered a relative IC50 (IC50mut/IC50 G1S-A70V) in [19] of over 100 fold.
